Source: US20250296996A1 (BROADWING BIO, published 2025)

T1: muANGPTL7-his (R&D Systems) (mouse, UniProt Q8R1Q3 22-337, limits assumed)
T1 construct: Bought protein; also called mouse ANGPTL7 protein
T1 sequence (looked up): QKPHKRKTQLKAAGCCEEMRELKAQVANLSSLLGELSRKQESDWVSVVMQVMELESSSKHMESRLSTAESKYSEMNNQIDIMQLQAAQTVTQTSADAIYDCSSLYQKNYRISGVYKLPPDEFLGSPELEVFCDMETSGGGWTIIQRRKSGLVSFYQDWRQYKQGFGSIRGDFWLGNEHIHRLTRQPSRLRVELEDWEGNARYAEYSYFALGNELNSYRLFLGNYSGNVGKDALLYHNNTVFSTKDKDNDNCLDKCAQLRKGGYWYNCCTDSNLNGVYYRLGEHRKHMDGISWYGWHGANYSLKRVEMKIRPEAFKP

T2: P60 (huANGPTL7-Fibrinogen-his) (human, UniProt O43827 129-343)
T2 construct: also called human ANGPTL7 fibrinogen domain; not shown: C-terminal short linker and His tag
T2 sequence: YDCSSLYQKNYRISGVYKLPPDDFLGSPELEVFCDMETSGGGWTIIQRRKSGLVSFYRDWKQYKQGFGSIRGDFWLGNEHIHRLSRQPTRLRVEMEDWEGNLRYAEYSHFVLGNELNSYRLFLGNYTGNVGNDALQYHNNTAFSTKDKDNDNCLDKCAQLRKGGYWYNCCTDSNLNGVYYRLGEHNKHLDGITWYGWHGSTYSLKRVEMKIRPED

T3: Pext-01 (huANGTPL7-FLAG multimer) (human, UniProt O43827 27-346)
T3 construct: also called PExt-1; human wild type ANGPTL7 multimer; not shown: FLAG tag
T3 sequence: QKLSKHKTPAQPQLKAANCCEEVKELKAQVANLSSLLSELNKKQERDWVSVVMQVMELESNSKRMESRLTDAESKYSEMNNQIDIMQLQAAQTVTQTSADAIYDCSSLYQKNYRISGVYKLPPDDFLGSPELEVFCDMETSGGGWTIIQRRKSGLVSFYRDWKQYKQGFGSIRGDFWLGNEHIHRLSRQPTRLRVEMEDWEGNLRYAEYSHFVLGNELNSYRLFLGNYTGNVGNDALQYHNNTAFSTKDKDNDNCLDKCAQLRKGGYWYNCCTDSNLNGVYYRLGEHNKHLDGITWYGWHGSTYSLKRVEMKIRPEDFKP

T4: P66 (rabbit ANGPTL7-his) (rabbit, UniProt G1T4P1 27-344)
T4 construct: mature; also called rabbit ANGPTL7 protein
T4 sequence: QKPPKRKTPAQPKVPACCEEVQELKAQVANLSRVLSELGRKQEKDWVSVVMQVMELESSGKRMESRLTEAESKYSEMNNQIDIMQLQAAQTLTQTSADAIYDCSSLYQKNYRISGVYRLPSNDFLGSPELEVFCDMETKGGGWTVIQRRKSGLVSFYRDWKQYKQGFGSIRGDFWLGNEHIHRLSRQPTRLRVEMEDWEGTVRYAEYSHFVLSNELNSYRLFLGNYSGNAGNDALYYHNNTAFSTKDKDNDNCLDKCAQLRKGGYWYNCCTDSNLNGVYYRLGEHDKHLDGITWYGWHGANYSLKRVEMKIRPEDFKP

B1: ATX-P-440 (antibody, human IgG1, kappa, N297A, V domains shown)
VH: EVQLVESGGGVVRPGGSLRLSCAASGFTFDDYGMSWVRQAPGKGLEWVSTINWNGGNTGYADSVKGRFTISRDNAKNSLYLQMNSLRAEDTALYYCARDEGAAGLGYYFDYWGQGTLVTVSS
VL: DIQMTQSPSTLSASVGDRVTITCRASQSISSWLAWYQQKPGKAPKLLIYATSSLQSGVPSRFSGSGSGTDFTLTISSLQPEDFATYYCQQSYSTPITFGQGTRLEIKR
notes: Full chains (VH + hIgG1-Agly-Fc)
B2: ATX-P-432 (antibody, human IgG1, kappa, N297A, V domains shown)
VH: QVQLVQSGAEVKKPGASVKVSCKASGYTFTDYYIHWVRQAPGPGLEWLGWINPNTGATKYAQKFQGRVTMTRDTSISTAYMELSRLRSDDTAVYYCAREDNGNYGDVFDIWGQGTMVTVSS
VL: not shown
notes: as for B1
B3: ATX-P-425 (antibody, human IgG1, kappa, N297A, V domains shown)
VH: EVQLVESGGGLVKPGGSLRLSCAASGFTFSTYSMNWVRQAPGKGLEWVSSITSSSSYMFYADSVMGRFTISRDNAKNSLYLQMNSLRAEDTADYYCARDSNWGEAFDIWGQGTMVTVSS
VL: DIQMTQSPSSLSASVGDRVTITCRASQGIRIDLGWFQQKPGKAPKRLIYAASSLPSGVPSRFSGSGSGTEFTLTISSLQPEDFATYYCLQHNSYPWTFGQGTKVEIKR
notes: as for B1
B4: ATX-P-423 (antibody, human IgG1, kappa, N297A, V domains shown)
VH: QVQLVESGGGVVQPGRSLRLSCAASGFTFSSYGMHWVRQAPGKGLEWVSHITYDGSDKYYGDSVKGRFTISRDNSKNTLYLQMNSLRAEDTAVYYCAKDGYSSGWWYFDYWGQGTLVTVSS
VL: DIQMTQSPSSLSASVGDRVTITCRASQGIRNDLGWYQQKPGKAPKRLIYAASSLQSGVPSRFSGSGSGTEFALTISSLQPEDFATYYCLQHNSYPLTFGGGTKLEIKR
notes: as for B1
B5: ATX-P-424 (antibody, human IgG1, kappa, N297A, V domains shown)
VH: EVQLVESGGGLVKPGGSLRLSCAASGFTFSSYSMNWVRQAPGKGLEWVSSITSSSYIFYADSLKGRFTISRDNAKNSLFLQMNSLRAEDTAVYYCARDSNWGEAFDIWGQGTMVTVSS
VL: DIQMTQSPSSLSASVGDRVTITCRASQGIRNDLGWYQQKPGKAPKRLIYAASSLPSGVPSRFSGSGSGTEFTLTISSLQPEDFAIYYCLQHNSYPWTFGQGTKVEIKR
notes: as for B1
B6: ATX-P-445 (antibody, human IgG1, kappa, N297A, V domains shown)
VH: EVQLVESGGGLVQPGGSLRLSCAASGFTFSSHDMHWVRQVTGKGLEWVSGIDPAGDTYYPDSVKGRFTISRENAKNSLYLQMNSLRAGDTAVYYCTRGEASSSSEDAFDIWGQGTMVTVSS
VL: not shown
notes: as for B1
B7: ATX-P-448 (antibody, human IgG1, kappa, N297A, V domains shown)
VH: QVQLVESGGGVVQPGRSLRLSCAASGFPFSSYGMHWVRQAPGKGLEWVAVMSYDGINGYYADSVKGRFTISRDNSKNTLYLQMNSLRAEDTAVYYCARLVYADDAFDIWGQGTTVTVSS
VL: EIVLTQSPATLSLSPGERATLSCRASQSVSSYLAWYQQKPGQAPRLLIYDASNRATGIPARFSGSGSGTDFTLTISSLEPEDFAVYYCQQRSNWPLTFGGGTKVEIKR
notes: as for B1
B8: ATX-P-439 (antibody, human IgG1, kappa, N297A, V domains shown)
VH: not shown
VL: DIQMTQSPSSVSASVGDRVTITCRASQGISSWLAWYQQKPGKAPKLLIYAASSLQSGVPSRFSGSGSGTDFTLTISSLQPEDFATYYCQQANSFPWTFGQGTKVDIKR
notes: as for B1
B9: ATX-P-442 (antibody, human IgG1, kappa, N297A, V domains shown)
VH: QITLKESGPTLVKPTQTLTLTCTFSGFSLSTSGVGVGWIRQPPGKALEWLALIYWNDDKRYSPSLKSRLTITKDTSKNLVVLTMTNMDPVDTATYYCARDYGDYWFFDLWGRGTPVTVSS
VL: DIQMTQSPSSLSASVGDRVTITCRASQGISSYLAWYQQKPGKAPKLLIYAASSLQSGVPSRFSGSGSGTDFTLTISSLQPEDFATYYCQQSFSTPLTFGGGTKLEIKR
notes: as for B1
B10: ATX-P-427 (antibody, human IgG1, kappa, N297A, V domains shown)
VH: EVQLVESGGGVVRPGGSLRLSCAASGFSFDDYGMSWVRQVPGKGLEWVSGINWNGGSTGYADSVKGRFTISRDNAKNSLYLQMSSLRAEDTALYYCASYSGSFRDAFDIWGQGTMVTVSS
VL: AIQMTQSPSSLSASVGDRVTITCRASQGIRNDLGWYQQKPGKAPKLLIYAASSLQSGVPSRFSGSGSGTDFTLTISSLQPEDFATYYCLQDYNYPYTFGQGTKLEIKR
notes: as for B1

Tests used:
[1] = biological target: T1, muANGPTL7-his (R&D Systems); test: BLI Octet HTX; IgG on AHC sensor; muANGPTL7-his at 200 nM; 1:1 fit
Procedure: (§1) Experiments were also conducted to determine the reactivity and dissociation constants (KD) of anti-ANGPTL7 antibodies with the mouse ANGPTL7 protein. Binding experiments were performed on Octet HTX (ForteBio) in 1×PBS, pH 7.4, 0.1 mg/mi BSA, 0.05% Sodium Azide, and 0.02% Tween 20. Antibodies at a concentration of 50 nM were loaded on pre-hydrated AHC biosensors for 5 mA. The loaded sensors were dipped into monovalent muANGPTL7-his (R&D Systems) at a concentration of 200 nM for 5 min of association, followed by 10 min of dissociation. […] Responses (nm) at the end of association were also determined (Table 5).

[2] = biological target: T2, P60 (huANGPTL7-Fibrinogen-his); test: BLI Octet HTX; IgG on AHC sensor; P60 at 200 nM; 1:1 fit
Procedure: (§2) ANGPTL7 Antibody Kinetics. Experiments were conducted to determine the reactivity and dissociation constants (KD) of anti-ANGPTL7 antibodies with the human fibrinogen domain of the ANGPTL7 protein. Binding experiments were performed on Octet HTX (ForteBio) in 1×PBS, pH 7.4, 0.1 mg/ml BSA, 0.05% Sodium Azide, and 0.02 Tween 20. Antibodies at a concentration of 50 nM were loaded on pre-hydrated AHC biosensors for 5 min. The loaded sensors were dipped into monovalent P60 (huANGPTL7-Fibrinogen-his) at a concentration of 200 nM for 5 min association, followed by 10 min dissociation. […] Responses (nm) at the end of association were also determined (Table 2).

[3] = biological target: T3, Pext-01 (huANGTPL7-FLAG multimer); test: BLI Octet HTX; IgG on AHC sensor; Pext-01 at 100 nM; 1:1 fit; apparent KD
Procedure: Experiments were also conducted to determine the reactivity and dissociation constants (KD) of anti-ANGPTL7 antibodies with the human ANGPTL7 multimer protein. Binding experiments were performed on Octet HTX (ForteBio) in 1×PBS, pH 7.4, 0.1 mg/ml BSA, 0.05% Sodium Azide, and 0.02% Tween 20. Antibodies at a concentration of 50 nM were loaded on pre-hydrated AHC biosensors for 5 mi. The loaded sensors were dipped into Pext-01 (huANGTPL7-FLAG) at a concentration of 100 nM for 5 min of association, followed by 10 min of dissociation. […] Responses (nm) at the end of association were also determined (Table 7).

P66 (rabbit ANGPTL7-his) = biological target: T4, P66 (rabbit ANGPTL7-his); test: BLI Octet HTX; IgG on AHC sensor; P66 at 200 nM; 1:1 fit
Procedure: as §1, with “([…])” for “(KD)”, “rabbit” for “mouse”, “Rx PBS,” for “1×PBS,”, “min.” for “mA.”, “P66 (rabbit ANGPTL7-his)” for “muANGPTL7-his (R&D Systems)”, “6).” for “5).”

[4] = biological target: T1, muANGPTL7-his (R&D Systems); test: BLI Octet HTX; IgG on AHC sensor; muANGPTL7-his at 200 nM
Procedure: as §1

[5] = biological target: T2, P60 (huANGPTL7-Fibrinogen-his); test: BLI Octet HTX; IgG on AHC sensor; P60 at 200 nM
Procedure: as §2

Binder | Kd [1] | Response [1] | Kd [2] | Response [3] | Kd (P66 (rabbit ANGPTL7-his)) | Response (P66 (rabbit ANGPTL7-his)) | binding result [4] | binding result [5] | Response [2] | Kd [3]
B1 | 55.3 nM | 0.21 nm | 55.8 nM | 0.61 nm | 6.27 nM | 0.57 nm |  |  |  | 
B2 |  | 0.03 nm |  |  |  |  | no binding (tested: 200 nM) |  |  | 
B3 |  |  | 305 nM | 0.83 nm | 2.38 nM | 0.95 nm |  |  |  | 
B4 |  | 0.14 nm | 18.3 nM | 0.87 nm | 6.69 nM | 1.02 nm | no binding (tested: 200 nM) |  |  | 
B5 |  | 0.14 nm | 106 nM | 0.76 nm | 4.65 nM | 0.93 nm | no binding (tested: 200 nM) |  |  | 
B6 |  | 0.01 nm |  | 0.8 nm |  |  | no binding (tested: 200 nM) | no binding (tested: 200 nM) | 0.12 nm | 
B7 |  | 0.69 nm | 4.69 nM | 0.58 nm | 0.949 nM | 0.75 nm |  |  |  | 
B8 |  | 0.53 nm |  | 0.87 nm | 2.95 nM | 0.92 nm |  |  | 0.28 nm | 12.8 nM
B9 |  | 0.32 nm | 4.62 nM |  | 3.38 nM | 0.95 nm |  |  | 0.69 nm | 
B10 | 10.3 nM | 0.48 nm | 65.1 nM | 0.82 nm | 3.21 nM | 0.93 nm |  |  | 0.5 nm | 
